Measured values published in article PMC9400078.

How the values were obtained:
[1] = target: CelTOS double mutant Lys122Asp, Leu164Asp (Plasmodium vivax); assay: SEC
[2] = target: CelTOS N-terminal truncation mutant (Gly51–Asp196) (Plasmodium vivax); assay: SEC

Substance	stoichiometry N [1]	stoichiometry N [2]
CelTOS double mutant Lys122Asp, Leu164Asp (natural protein)	2	–
CelTOS N-terminal truncation mutant (Gly51–Asp196) (domain or fragment)	–	2
